These results are taken from article PMC10395824 (PLOS Pathogens, 2023).

The target of the assay is SARS-CoV-2 S1 RBD2 (Wuhan RBD, S-protein amino acids 319-541) (SARS-CoV-2 Wuhan, UniProt P0DTC2). Put plainly: […] (150 mM NaCl, 20 mM Tris pH 7.5); […], MES pH 5.5, […]. Conditions: both partners purified.

B1: Fab ICO-hu23 (Fab, V domains shown)
VH: EVQLVQSGAEVKKPGASVKVSCKASGYTFTGYYFHWVRQAPGQGLEWMGWINPISGGTKYAQKFQGWVTMTRATSISTVYMEVSRLRSDDTAVYYCARGHTYNWNYAYCDYWGQGTLVTVSS
VL: SYVLTQPASVSGSPGQSITISCTGTSSDVGVYNYVSWYQQHPGKAPKLMIYDVSNRPSGVSNRFSGSKSGNTASLTISGLQAEDEADYYCSSYTSSSTLVFGGGTKLTVL
Regarding B1, the binding result is “binds”.
